The values that follow come from patent US20210130452A1 (Merck KGaA, published 2021).

Test [1] has as its target T1, human IL-17A (human, UniProt Q16552 24-155, biotinylated with Sulfo-NHS-LC-Biotin in the AlphaScreen assays only). As to the kind of experiment: cell-based or functional assay.
A further test deals with T2, human IL-17F (human, UniProt Q96PD4 31-163, biotinylated with Sulfo-NHS-LC-Biotin in the AlphaScreen assays only).
T2 construct: also called hIL-17F; recombinant human IL-17F
T2 sequence: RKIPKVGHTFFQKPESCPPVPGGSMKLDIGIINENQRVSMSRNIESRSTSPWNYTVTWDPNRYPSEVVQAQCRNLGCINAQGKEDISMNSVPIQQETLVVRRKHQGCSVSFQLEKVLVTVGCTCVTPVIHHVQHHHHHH
The test can be described thus: SPR Biacore, hIL-17F on chip; periplasmic extract (*); NB = no binding.

Test [2] deals with T3, human IL-17A/F heterodimer (human, UniProt Q16552 24-155; Q96PD4 31-163, limits assumed, biotinylated with Sulfo-NHS-LC-Biotin in the AlphaScreen assays only).
T3 construct: also called hIL-17A/F
T3 sequence (Q16552 24-155 limits assumed, chain 1 of 2, one chain of several): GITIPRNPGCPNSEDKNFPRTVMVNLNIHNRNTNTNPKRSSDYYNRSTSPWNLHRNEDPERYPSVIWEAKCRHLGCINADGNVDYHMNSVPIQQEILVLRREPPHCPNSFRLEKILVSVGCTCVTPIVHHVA
The test can be described thus: AlphaScreen competition, hIL-17A/F - IL-17RA-Fc.
Protocol: (§1) To this mixture, the IL-17RA or IL-17RC Fc-fusions, Acceptor beads and the streptavidin Donor beads were added and further incubated for 1 hour at RT.

In test [3] the target is T3, human IL-17A/F heterodimer. The test can be described thus: cell-based or functional assay.
The target of test [4] is T3, human IL-17A/F heterodimer. The test can be described thus: SPR Biacore, hIL-17A/F on chip; purified protein.
For test [5], the target named is T3, human IL-17A/F heterodimer. As to the kind of experiment: AlphaScreen competition, hIL-17A/F - IL-17RC-Fc.
Protocol: as §1
The target in test [6] is T1, human IL-17A. The test can be described thus: AlphaScreen competition, hIL-17A - IL-17RA-Fc.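 Note: receptor Fc-fusion plus Acceptor and streptavidin Donor beads incubated with the mixture for 1 h at room temperature before reading.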
Protocol: as §1
Test [7] addresses T1, human IL-17A. As to the kind of experiment: AlphaScreen competition, hIL-17A - IL-17RC-Fc.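 Note: Read-out after 1 h at room temperature with the receptor Fc-fusion, Acceptor beads and streptavidin-coated Donor beads present.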
Protocol: as §1
The target in test [8] is T1, human IL-17A. The test can be described thus: SPR Biacore, hIL-17A on chip; purified protein.
The target in a further test is T4, rat IL-17F (rat, UniProt Q5BJ95 29-161).
T4 sequence (looked up): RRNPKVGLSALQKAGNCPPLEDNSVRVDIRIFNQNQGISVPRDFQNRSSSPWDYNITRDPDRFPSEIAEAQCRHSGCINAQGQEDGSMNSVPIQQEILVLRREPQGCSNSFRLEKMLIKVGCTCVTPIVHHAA
As to the kind of experiment: binding ELISA.

Another test has as its target T5, mouse IL-17F (mouse, UniProt Q7TNI7 29-161).
T5 sequence (looked up): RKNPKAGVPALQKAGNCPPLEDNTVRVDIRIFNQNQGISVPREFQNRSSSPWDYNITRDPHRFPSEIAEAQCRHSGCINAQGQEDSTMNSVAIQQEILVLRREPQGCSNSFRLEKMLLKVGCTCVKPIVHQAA
As to the kind of experiment: binding ELISA.

For a further test, the target named is T6, human IL-17E (human, UniProt Q9H293 33-177).
T6 construct: expressed in E. coli; also called hIL-17E
T6 sequence (looked up): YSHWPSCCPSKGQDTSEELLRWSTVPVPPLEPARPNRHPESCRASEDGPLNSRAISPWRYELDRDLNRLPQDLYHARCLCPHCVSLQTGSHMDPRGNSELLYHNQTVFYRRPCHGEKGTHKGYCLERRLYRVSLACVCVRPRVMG
As to the kind of experiment: SPR, cytokine on chip.

The target of a further test is T7, human IL-17B (human, UniProt Q9UHF5 21-180).
T7 construct: expressed in E. coli; also called hIL-17B
T7 sequence (looked up): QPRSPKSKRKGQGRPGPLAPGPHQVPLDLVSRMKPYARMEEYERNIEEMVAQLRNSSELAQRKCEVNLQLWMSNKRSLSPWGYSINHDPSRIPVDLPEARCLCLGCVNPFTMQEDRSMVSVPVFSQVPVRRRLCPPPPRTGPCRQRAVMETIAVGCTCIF
As to the kind of experiment: SPR, cytokine on chip.

For a further test, the target named is T8, human IL-17D (human, UniProt Q8TAD2 18-202, limits assumed).
T8 construct: expressed in E. coli; also called hIL-17D
T8 sequence (looked up): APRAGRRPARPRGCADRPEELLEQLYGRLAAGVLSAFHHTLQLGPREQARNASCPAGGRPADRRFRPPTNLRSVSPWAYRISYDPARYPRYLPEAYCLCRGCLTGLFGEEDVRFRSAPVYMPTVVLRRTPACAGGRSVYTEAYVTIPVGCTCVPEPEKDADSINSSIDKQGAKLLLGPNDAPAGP
As to the kind of experiment: SPR, cytokine on chip.

The target in the next test is T9, human IL-17C (human, UniProt Q9P0M4 19-197).
T9 construct: expressed in E. coli; also called hIL-17C
T9 sequence (looked up): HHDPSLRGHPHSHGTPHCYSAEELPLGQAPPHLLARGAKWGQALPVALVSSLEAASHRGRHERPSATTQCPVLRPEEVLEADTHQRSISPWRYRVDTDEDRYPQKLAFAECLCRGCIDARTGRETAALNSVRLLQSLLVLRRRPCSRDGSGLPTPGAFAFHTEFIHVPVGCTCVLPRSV
The test can be described thus: SPR, cytokine on chip.

T1 sequence (Q16552 other isoform, or with tags, fused parts or gaps): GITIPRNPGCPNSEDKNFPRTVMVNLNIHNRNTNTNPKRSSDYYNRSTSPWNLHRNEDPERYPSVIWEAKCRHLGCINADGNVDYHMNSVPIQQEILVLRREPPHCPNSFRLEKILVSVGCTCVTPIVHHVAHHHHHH
Description for human IL-17B: (§2) Human IL-17B, IL-17C, IL-17D or IL-17E were all expressed in E. coli, and covalently bound to a CM sensor chip surface via amine coupling using EDC/NHS for activation and HCl for deactivation.
(§3) Next, binding buffer was sent over the chip at the same flow rate to allow spontaneous dissociation of bound Nanobody or antibody.
Description for human IL-17C: as §2, §3
Description for human IL-17D: as §2, §3
Description for human IL-17E: as §2, §3
Protocol for mouse IL-17F: (§4) Binding of a selected panel of anti-IL-17 Nanobodies to IL-17 of other species was assessed using a binding ELISA. […] HRP (horseradish peroxidase) conjugated anti-myc (Serotec, MCA 2200P) was used for detection using esTMB as substrate.
Protocol for rat IL-17F: as §4

B1: 04F09 (VHH)
VHH: EVQLVESGGGLVQPGGSLRLSCAASGRTFSTHAMGWFRQAPGKERDFVAAIRWSDGSSFYADSVKGRFTISRDNAKNAVYLQSNSLKSEDTAVYVCYADVEGPTALHKYWGRGTQVTVSS
notes: Class 2 Nanobody (anti-IL-17A and IL-17A/F); not shown: c-myc, His6 tag
For the molecule B1, the “IL-17A-induced IL-6 production in HT-1080 cells, Emax” value (from here on “IL-17A-induced IL-6 production … Emax”) in the test with human IL-17A [1] was determined as 111%. Moreover, the “IL-17A-induced IL-6 production in HT-1080 cells, IC50” value (“IL-17A-induced IL-6 production … IC50” below) with human IL-17A [1] was 9.7 nM. The binding result with human IL-17F is recorded as “no binding”. Also, the IC50 in [2] came to 3.98 nM; in test [5] it was 3.15 nM; with human IL-17A [6] it was 0.099 nM; in the test with human IL-17A [7], 0.468 nM. For the same molecule, in [3], the “IL-17A/F-induced IL-6 production in HT-1080 cells, Emax” value came to 68.5%. In test [3], the “IL-17A/F-induced IL-6 production in HT-1080 cells, IC50” value was found to be 45.9 nM. In addition, the koff in [4] amounted to 0.0081 s⁻¹; with human IL-17A [8], 0.00063 s⁻¹.

B2: 04B10 (VHH)
VHH: EVQLVESGGGLVQAGGSQSLSCVASGTIVNINVMGWYRQAPGKQRELVALITSGGGTTYGDSVKGRFTISIDNAKNTVILQMNSLEAEDTAVYYCAAEIGYYSGGTYFSSEAHWGQGTQVTVSS
notes: as for B1
For B2, the “IL-17A-induced IL-6 production … Emax” value with human IL-17A [1] was 99.7%. In addition, the “IL-17A-induced IL-6 production … IC50” value with human IL-17A [1] amounted to 5.1 nM. Besides, the binding result with human IL-17F is “no binding”. In addition, the IC50 worked out at 0.095 nM in [2], 0.052 nM in [5], 0.068 nM with human IL-17A [6] and 0.366 nM with human IL-17A [7]. In addition, the “IL-17A/F-induced IL-6 production in HT-1080 cells, Emax” value in test [3] is 97%. Further, the “IL-17A/F-induced IL-6 production in HT-1080 cells, IC50” value in test [3] came out at 59.2 nM. Moreover, the koff came out at 0.0005 s⁻¹ in [4] and 0.0004 s⁻¹ in the test with human IL-17A [8].

B3: 07B09 (VHH)
VHH: EVQLVESGGGLVQAGGSLRLSCGASGGTFSSYATGWFRQAPGKEREFVAVLRWSDGHTAYADSVKGRFTISRDGAKNTMYLQMSSLKPEDTAIYYCTTATRPGEWDYWGQGTQVTVSS
notes: Class 3
For the molecule B3, the binding result in the test with rat IL-17F is on record as “no binding (tested: 250 nM)”; in the test with mouse IL-17F, “no binding (tested: 250 nM)”; with human IL-17E, “no binding”; with human IL-17B it was “no binding”; with human IL-17D, “no binding”; with human IL-17C, “no binding”.

B4: 08H01 (VHH)
VHH: EVQLVESGGGLVQAGGSLRLSCGASGGTFSSYATGWFRQAPGKEREFVAVLRWSDSHTAYADSVEGRFTISRDGAKNTVYLQMSSLKPEDTAIYYCTTGTRPGEWHYWGQGTQVTVSS
notes: Class 3
With B4, the binding result in the test with rat IL-17F is “no binding (tested: 250 nM)”; with mouse IL-17F, “no binding (tested: 250 nM)”; with human IL-17E it was “no binding”; with human IL-17B, “no binding”; in the test with human IL-17D, “no binding”; with human IL-17C, “no binding”.

B5: 04G01 (VHH)
VHH: EVQLVESGGGLVQAGGSQRLSCTASGTIVNIHVMGWYRQAPGKQRELVALIFSGGSADYADSVKGRFTISRDNAKNTVYLEMNSLKAEDTAVYYCAAEIGYYSGGTYYSSEAHWGQGTQVTVSS
notes: Class 2 Nanobody (anti-IL-17A and IL-17A/F); also called IL17MS04G01; not shown: c-myc, His6 tag
On to B5, for which the “IL-17A-induced IL-6 production … Emax” value with human IL-17A [1] was found to be 113%. Also, the “IL-17A-induced IL-6 production … IC50” value with human IL-17A [1] was 5.4 nM. In addition, the binding result with human IL-17F is given as “no binding”. Further, the IC50 in test [2] worked out at 0.067 nM; in test [5], 0.039 nM; with human IL-17A [6], 0.014 nM; in the test with human IL-17A [7], 0.217 nM. The “IL-17A/F-induced IL-6 production in HT-1080 cells, Emax” value in test [3] came to 104%. The “IL-17A/F-induced IL-6 production in HT-1080 cells, IC50” value in [3] amounted to 34.7 nM. The koff in test [4] was found to be 0.00023 s⁻¹; with human IL-17A [8] it was 0.00018 s⁻¹.

B6: 02A10 (VHH)
VHH: EVQLVESGGGLVQPGGSLRLSCAASGFALGYYAIGWFRQAPGKEREGVSCDSSSDGRTYYGDSVKGRFTISTDSAKNTVYLQMNSLKPEDTAVYYCATCTDFEYDYWGQGTQVTVSS
notes: as for B1
Regarding B6, the “IL-17A-induced IL-6 production … Emax” value in the test with human IL-17A [1] amounted to 104%. Besides, the “IL-17A-induced IL-6 production … IC50” value in the test with human IL-17A [1] was 4.3 nM. Further, the binding result with human IL-17F is on record as “no binding”. Moreover, the IC50 in test [2] was 0.199 nM; in [5], 0.248 nM; in the test with human IL-17A [6], 0.115 nM; with human IL-17A [7], 0.381 nM. Further, the “IL-17A/F-induced IL-6 production in HT-1080 cells, Emax” value in test [3] was found to be 98.5%. Besides, the “IL-17A/F-induced IL-6 production in HT-1080 cells, IC50” value in [3] was determined as 29.2 nM. Besides, the results for the off-rate (koff) (in test [4]; in the test with human IL-17A [8]) were 0.00028 s⁻¹ and 0.00022 s⁻¹, respectively.

B7: 07B11 (VHH)
VHH: EVQLVESGGGLVQAGGSLRLSCVASGRAFSSYVMGWFRQAPGMEREFVALIRWSDGITGYVDSVKGRFTISRDNAKNTVYLQMNSLKPEDTAVYYCAAAVRPGDYDYWGQGTQVTVSS
notes: Class 3
For B7, the binding result with rat IL-17F is listed as “no binding (tested: 250 nM)”; in the test with mouse IL-17F, “no binding (tested: 250 nM)”; with human IL-17E it was “no binding”; with human IL-17B it was “no binding”; with human IL-17D, “no binding”; in the test with human IL-17C it was “no binding”.

B8: 24B08 (VHH)
VHH: EVQLVESGGGLVQAGGSLRLSCAVSGGTFSTYKMGWFRQAPGKEREIVARISTNGPTAYAEFVKGRFTVSRENTKNTVYLQMNSLNIEDTAVYYCAAGYDSLFAGYDYWGQGTQVTVSS
notes: Class 3
Consider B8, for which the binding result in the test with rat IL-17F and in the test with mouse IL-17F was “no binding (tested: 250 nM)” in each case.

B9: 09G10 (VHH)
VHH: EVQLVESGGGLVQAGGSLRLSCAASDSVFTAKAVGWYRQPPGLQREWVAIITSGGKTNYADSSVKGRFTVSVDKVKNTVTLQMNSLKPEDTAVYYCYAQWMGRDYWGQGTQVTVSS
notes: as for B1
For the molecule B9, the “IL-17A-induced IL-6 production … Emax” value with human IL-17A [1] is 99%. Further, the “IL-17A-induced IL-6 production … IC50” value in the test with human IL-17A [1] is 4 nM. Moreover, the binding result in the test with human IL-17F was “no binding”. For the same molecule, the IC50 turned out to be 0.101 nM in test [2], 0.12 nM in test [5], 0.046 nM in the test with human IL-17A [6] and 0.323 nM with human IL-17A [7]. Also, in [3], the “IL-17A/F-induced IL-6 production in HT-1080 cells, Emax” value came out at 108%. Also, the “IL-17A/F-induced IL-6 production in HT-1080 cells, IC50” value in test [3] was determined as 22.2 nM. The off-rate constant (koff) came out at 0.00013 s⁻¹ in test [4] and 0.00012 s⁻¹ in the test with human IL-17A [8].
